In this assay the target is T1, bacteriophage MS2 coat protein (bacteriophage MS2), P03612.
T1 chain: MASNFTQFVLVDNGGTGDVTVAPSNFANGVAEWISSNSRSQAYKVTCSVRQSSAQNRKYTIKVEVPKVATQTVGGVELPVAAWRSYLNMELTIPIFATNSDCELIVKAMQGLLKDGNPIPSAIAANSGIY
The assay can be described thus: cryo-EM structure; single particle cryo-EM of purified MS2 virions (coat protein, A-protein and RNA genome); icosahedral reconstruction at 4.1 Å and asymmetric reconstruction at 8.7 Å. The following applies: remark: other sources report otherwise.

The stoichiometry N is the number of molecules, sites or subunits per partner or assembly.

B1: bacteriophage MS2 coat protein, P03612 1-130 (natural protein)
chain: MASNFTQFVLVDNGGTGDVTVAPSNFANGVAEWISSNSRSQAYKVTCSVRQSSAQNRKYTIKVEVPKVATQTVGGVELPVAAWRSYLNMELTIPIFATNSDCELIVKAMQGLLKDGNPIPSAIAANSGIY
In the case of B1, the stoichiometry N came out at 178 copies.

Values taken from paper PMC5007439.
